Experimental findings from patent US20250270306A1 (OSPEDALE SAN RAFFAELE S R L, published 2025) are described below.

The target of test [1] is T1, Recombinant human IGFBP3 (human, UniProt P17936 28-291). In words: cell-based or functional assay.
Test [2] has as its target T1, Recombinant human IGFBP3. Briefly: BLI (Octet/BLItz), antibody captured via Fc on AHC biosensor, antigen in solution. As for the experimental part:
(§1) To assess the binding affinity in more detail, affinity measurements were performed using Biomolecular Interaction Analysis performed by an Octet instrument (BLItz System), which is a Biolayer Interferometry (BLI) platform. To establish the assay, the target monoclonal antibody (30 μg/ml in 1% BSA-PBST) was immobilized via Fc on the via AHC biosensor and the interaction with the antigen human IGFBP3 (R&D, cat n° 675 B3) and mouse IGFBP3 (Creative Biomart, cat n° igfbp3 829M) at different concentration was measured.

For test [3], the target named is T1, Recombinant human IGFBP3. Briefly: ELISA: rhIGFBP3 2 µg/ml coated directly; scFv-Fc titrated 0.01-10 µg/ml; detection goat anti-human Fc-HRP, Abs 450 nm. The procedure:
CVC microplates were coated with: i) 100 μl/well of 2 μg/ml rhIGFBP3 dissolved in PBS or PBS alone (no coating) and incubated 60 minutes at RT; ii) 100 μl/well of 2 μg/ml anti-IGFBP3 (LS-C45037 LSBio) and incubated o.n at 4° C. Plates were washed with H₂O-Tween20 (0.05%) and incubated with the blocking reagent (2% BSA-PBS-T (0.05%)). For condition ii) 100 μl/well of 2 μg/ml rhIGFBP3 was incubated o.n at 4° C. After washing the newly generated antibodies (in 2% BSA-PBS-T (0.05%)) were titrated onto the plate and incubated for 1 hour at RT. After washing steps, detection of bound antibodies was performed using a goat anti-human Fc-HRP antibody (Sigma A0170) in 2% BPS-PBS-T (0.05%) followed by washing and read out with TMB (100 μl/well). ELISA plates were then read measuring the absorbance at 450 nm.

For test [4], the target named is T2, mouse IGFBP3 (mouse, UniProt P47878 28-292, limits assumed).
T2 construct: Bought protein; also called mIGFBP-3; murine IGFBP3
T2 sequence (P47878 28-292 limits assumed): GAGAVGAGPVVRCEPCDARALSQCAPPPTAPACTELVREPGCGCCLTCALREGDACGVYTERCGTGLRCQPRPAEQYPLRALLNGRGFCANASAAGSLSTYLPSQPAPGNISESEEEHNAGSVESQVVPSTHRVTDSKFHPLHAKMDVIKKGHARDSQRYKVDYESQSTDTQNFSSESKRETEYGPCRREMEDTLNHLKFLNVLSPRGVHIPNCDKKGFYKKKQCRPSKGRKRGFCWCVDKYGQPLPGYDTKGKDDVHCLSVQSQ
Briefly: BLI (Octet/BLItz), antibody captured via Fc on AHC biosensor, antigen in solution. As for the experimental part:
as §1

Test [5] has as its target T1, Recombinant human IGFBP3. Briefly: competitive ELISA: plate coated with rhIGFBP3 4 µg/ml; ecto-TMEM219 10 µg/ml added with the antibody (10 µg/ml per paragraph 174); detection anti-HisTag HRP; blocked ligand: ecto-TMEM219. The procedure:
FIG. 5. IGFBP3-Ecto-TMEM219 binding in the presence of newly generated anti-IGFBP3 mAbs (n=11, YU139 antibodies) or Ecto-TMEM219 alone or monoclonal anti-IGFBP3 commercially available (LSBIO LS-C45037/clone 83.8F9, mAnti-IGFBP3) tested by using a competitive ELISA screening assay. In this assay, the microtiter plate was coated with rhlGFBP3, and labeled ecto-TMEM219 added. Each candidate monoclonal antibody was added and its ability to displace ecto-TMEM219 was assessed by measuring Absorbance after the plate was washed. Boxed are anti-IGFBP3 antibodies able to achieve the highest reduction in Ecto-TMEM219 signal (1-way ANOVA, p<0.00001).
Microplate was coated with 50 μl/well of 4 μg/ml rhlGFBP3 dissolved in PBS or PBS alone (no coating). Plate was incubated 90 minutes at 37° C. and washed with PBS (300 μl/well) and incubated with the blocking reagent (200 μl/well) 2 hours at room temperature. Samples were then diluted in the diluent solution (50 μl/well) and added to the plate as follows: diluent solution (none), ecto-TMEM 10 μg/ml, ecto-TMEM 10 μg/ml+anti-IGFBP3 mAbs 10 μg/ml, anti-IGFBP3 mAbs 10 μg/ml alone. After washing steps, plate was then incubated at room temperature for 1 hour with anti 6×His tag HRP diluted 1:2000 in Diluent solution (50 μl/well). ELISA plate was then read after adding visualization solution at ELISAreader and adsorbance was measured.

Test [6] concerns the target T2, mouse IGFBP3. Briefly: BLI (Octet/BLItz).
Test [7] addresses T1, Recombinant human IGFBP3. Briefly: BLI (Octet/BLItz).

T1 sequence (P17936 28-291 limits assumed): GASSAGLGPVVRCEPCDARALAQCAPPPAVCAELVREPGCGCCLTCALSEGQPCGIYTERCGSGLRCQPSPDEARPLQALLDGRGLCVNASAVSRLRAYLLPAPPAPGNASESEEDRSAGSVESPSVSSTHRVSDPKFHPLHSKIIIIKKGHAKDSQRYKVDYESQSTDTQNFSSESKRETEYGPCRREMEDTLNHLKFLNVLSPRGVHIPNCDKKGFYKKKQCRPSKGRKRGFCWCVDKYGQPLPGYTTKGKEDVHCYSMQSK

B1: YU139-H03 (Fc fusion)
VH: QVQLVQSGAEVKKPGASVKVSCKASGYTFTSYGISWVRQAPGQGLEWMGWISAYNGNTNYAQKLQGRVTMTTDTSTSTAYMELRSLRSDDTAVYYCARVKWELGWAFDIWGQGTMVTVSS
VL: QAVLTQPPSVSGAPGQRVTISCTGSSSNIGAGYDVHWYQQLPGTAPKLLIYGNSNRPSGVPDRFSGSKSGTSAPLAITGLQAEDEADYYCQSYDSSLSTVFGGGTKLTVL
notes: The format used in the Octet assay is not restated (captured via Fc)
As for B1, in the test with Recombinant human IGFBP3 [1], the “expression of ISCs markers EphB2 and LGR5 (RT-PCR) in IGFBP3-treated mini-guts” value (shortened to “expression”) was at least 50%. Besides, the equilibrium dissociation constant (Kd) in the test with Recombinant human IGFBP3 [2] came to 4000 nM.

B2: YU139-A02 (Fc fusion)
VH: QVQLVQSGAEVKKPGSSVKVSCKASGGTFSSYAISWVRQAPGQGLEWMGGIIPIFGTANYAQKFQGRVTITADESTSTAYMELSSLRSEDTAVYYCARDYYDSSGYYFDAFDIWGQGTMVTVSS
VL: QAGLTQPPSASGTPGQRVIISCSGSSSNIGTNTVSWYQHLPGTAPKLLIYNNNERPSGVPRRFSGSRSGASASLAISGLQSDDEAHYYCAAWDDNLTGLVFGGGTKLTVL
In the case of B2, the binding result with Recombinant human IGFBP3 [3] is given as “binds”.

B3: YU139-C01 (Fc fusion)
VH: QVQLVQSGAEVKKPGASVKVSCKASGYTFTSYGISWVRQAPGQGLEWMGWINTYNGNTNYAQKLQGRVTMTTDTSTTTAYMELRSLRSDDTAVYYCARDIGYSGSYYSPYYYYGMDVWGQGTTVTVSS
VL: SSELTQDPAVSVALGQTVRITCQGDGLRNYFASWYQQKPGQAPVLVIYGKNNRPSGIPDRFSGSSSGNTASLRIAGAQAEDEADYYCNSRDGSGKHLVFGGGTKLTV
notes: The format used in the Octet assay is not restated (captured via Fc); also called Yu139-CO1
As to B3, the “expression” value with Recombinant human IGFBP3 [1] is at least 50%. For the same molecule, the results for the Kd with mouse IGFBP3 [4] and with Recombinant human IGFBP3 [2] were 342 nM and 1.69 nM, respectively.

B4: YU139-B01 (Fc fusion)
VH: QVQLQESGPGLVKPSGTLSLTCAVSGGSISSSNWWSWVRQPPGKGLEWIGEVYHSGSTNYNPSLKSRVTISVDKSKNQFSLKLSSVTAADTAVYYCARNIPLSSSWPNYYYYYGMDVWGQGTTVTVSS
VL: SSELTQDPAVSVALGQTVRITCQGDSLRNYYASWYQQKPGQAPVLVIYGKNNRPSGIPDRFSGSSSGNTASLTINGAQAEDEADYYCNSRDSSAKHWVFGGGTKLTV
As for B4, the binding result with Recombinant human IGFBP3 [5] is recorded as “binds”.

B5: YU139-G01 (Fc fusion)
VH: QMQLVQSGAEVKMPGASVKVSCKASGYTFTSYGISWVRQAPGQGLEWMGWISAYNGNTYYAQKLQGRVTMTADTSTSTAYMDLRSLRSDDTAVYYCARLSYYNYAMDVWGQGTTVTVSS
VL: QSALTQPPSASGSPGQSVTISCTGTSSDVGGYNHVSWYQQHPGKAPKLMIYEVSNRPSGVPNRFSGSKSGNTASLTISGLQAEDEADYYCSSYTSSNTWVFGGGTKLTVL
Take B5: the binding result with Recombinant human IGFBP3 [3] was “binds”.

B6: ecto-TMEM219 (receptor)
chain: THRTGLRSPDIPQDWVSFLRSFGQLTLCPRNGTVTGKWRGSHVVGLLTTLNFGDGPDRNKTRTFQATVLGSQMGLKGSSAGQLVLITARVTTERTAGTCLYFSAVPGILPSSQPPISCSEEGAGNATLSPRMGEECVSVWSHEGLVLTKLLTSEELALCGSR
notes: it is put last here only for want of better knowledge; also called EctoTMEM-His; extracellular domain of TMEM219; not shown: His tag (detected with anti 6xHis tag HRP)
On to B6, for which the dissociation constant (Kd) with mouse IGFBP3 [6] was found to be 60 nM; with Recombinant human IGFBP3 [7] it was 35 nM.

B7: YU139-G03 (Fc fusion)
VH: QVQLQQSGAEVKKPGSSVKVSCKASGGIFSTYVTSWVRQAPGQGLEWMGGIIPMFDTTEYAQKLEGRVTITVDESTNTAYMELSSLRFEDTAVYYCARAGGLSHFDYWGQGTLVTVSS
VL: EIVLTQSPLSLPVTPGEPASISCRSSQSLLHSNGNNYLNWYLQKPGQSPQLLIYLSSRRASGVPDRFSGSGSGTDFTLKISRVEAEDVGVYYCMQGLQTPWTFGQGTKVETK
Regarding B7, the “expression” value with Recombinant human IGFBP3 [1] was at least 50%.

B8: YU139-D02 (Fc fusion)
VH: EVQLVESGGGVVQPGRSLRLSCAASGFTFSSYGMHWVRQAPGKGLEWVAVISYDGSNKYYADSVKGRFTISRDNSKNTLYLQMNSLRAEDTAVYYCAKDNGDYGYYYYYYMDVWGKGTTVTVSS
VL: DIQMTQSPSTLSASVGDRVTITCRASQSISRWLAWYQQKPGKAPKLLIYDASSLESGVPSRFSGSGSGTEFTLTISSLQPDDFATYYCQQSYSTPLTFGPGTKVDIK
On to B8, for which, in the test with Recombinant human IGFBP3 [5], the binding result is listed as “binds”.

B9: YU139-D03 (Fc fusion)
VH: QVQLVQSGAEVKKPGASVKVSCKASGYTFSDYGISWVRQAPGQGLEWMGWISGDNVKTTYAKKFQGRVTLTTDTSTSTAYMELRSLTSDDTAAYYCARGGIVFDYWGQGTLVTVSS
VL: ETTLTQSPGTLSLSPGERATLSCRASQSVSGNYLAWYQQKPGQPPRLLIFGASSRATGIPDRFSGSGSGTDFTLTISRLEPEDFGVYYCQQYGSSPGTFGQGTKVEIK
As for B9, in the test with Recombinant human IGFBP3 [5], the binding result is “binds”.

B10: YU139-A03 (Fc fusion)
VH: QVQLVQSGGGVVQPGRSLRLSCAASGFTFSSYGIHWVRQAPGKGLEWVAIVSYDGRHKYYADSVKGRFTISRDDSKNTIYLQMDSLRAEDTAVYYCAKDSGNSGLEGIHDYWGQGTLVTVSS
VL: DVVMTQSPSSVSASVGDRVTITCRASQGISSWLAWYQQKPGKAPKLLIYAASSLQSGVPSRFSGSGSGTDFTLTISSLQPEDFGTYYCQQANSFPLTFGGGTKVEIK
notes: as for B1
Consider B10, for which, in the test with Recombinant human IGFBP3 [1], the “expression” value was at least 50%. In addition, the dissociation constant Kd with mouse IGFBP3 [4] stood at 735 nM; in the test with Recombinant human IGFBP3 [2], 328 nM.
